The source of these data is US20210364527A1 (QUANTUM SI, published 2021).

Primed or numbered codes have the meaning given here. Ends that are not written are not given here. FITC′ = not defined here

Sequences and labels used below:
B6: FITC-labeled FA peptide FAKLDEESILKQK-FITC (peptide)
peptide: FAKLDEESILKQK-{FITC′}
B7: FITC-labeled YA peptide YAKLDEESILKQK-FITC (peptide)
peptide: YAKLDEESILKQK-{FITC′}
B9: FITC-labeled WA peptide WAKLDEESILKQK-FITC (peptide)
peptide: WAKLDEESILKQK-{FITC′}
B10: FITC-labeled LA peptide LAKLDEESILKQK-FITC (peptide)
peptide: LAKLDEESILKQK-{FITC′}
B16: FITC-labeled IA peptide IAKLDEESILKQK-FITC (peptide)
peptide: IAKLDEESILKQK-{FITC′}

In assay [1] the target is T1, IA peptide IAKLDEESILKQK (XAKLDEESILKQK, X = I).
T1 construct: Immobilized on the biolayer interferometry sensor
T1 peptide: IAKLDEESILKQK
Description: BLI heatmap.

The target in assay [2] is T2, VA peptide VAKLDEESILKQK (XAKLDEESILKQK, X = V).
T2 construct: Immobilized on the biolayer interferometry sensor
T2 peptide: VAKLDEESILKQK
Put plainly: BLI heatmap.

In assay [3] the target is T3, LA peptide LAKLDEESILKQK (XAKLDEESILKQK, X = L).
T3 construct: Immobilized on the biolayer interferometry sensor
T3 peptide: LAKLDEESILKQK
Description: BLI heatmap.

The target of assay [4] is T4, W peptide WAKLDEESILKQK (XAKLDEESILKQK, X = W).
T4 construct: Immobilized on the biolayer interferometry sensor
T4 peptide: WAKLDEESILKQK
Put plainly: BLI heatmap.

In assay [5] the target is T5, F peptide FAKLDEESILKQK (XAKLDEESILKQK, X = F).
T5 construct: Immobilized on the biolayer interferometry sensor
T5 peptide: FAKLDEESILKQK
Put plainly: BLI heatmap.

The target of assay [6] is T6, Y peptide YAKLDEESILKQK (XAKLDEESILKQK, X = Y).
T6 construct: Immobilized on the biolayer interferometry sensor
T6 peptide: YAKLDEESILKQK
Description: BLI heatmap.

The target in assay [7] is T7, RA peptide (N-terminal arginine, penultimate alanine; rest of sequence not given).
T7 peptide: RAKLDEESILKQK-{FITC′}
Description: fluorescence polarization.

Assay [8] concerns the target T8, ClpS from Thermosynochoccus elongatus (teClpS) (Thermosynechococcus elongatus, UniProt Q8DJY3 6-94).
T8 construct: Dye-labelled or streptavidin-complexed depending on the assay; also called Thermosynechococcus elongatus ClpS
T8 sequence: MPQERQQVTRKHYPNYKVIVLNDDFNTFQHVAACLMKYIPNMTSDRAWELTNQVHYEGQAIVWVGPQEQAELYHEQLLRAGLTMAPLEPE
Description: fluorescence polarization, FITC-peptide with ClpS:streptavidin complex, 23 C. On the technique in general: Polarisation of emitted light reports the rotation of a fluorescent probe.

Assay [9] deals with B10. Description: fluorescence polarization, single point.
In assay [10] the target is B9. Put plainly: fluorescence polarization, single point.
Assay [11] addresses B7. Put plainly: fluorescence polarization, single point.
Assay [12] concerns the target B6. Put plainly: fluorescence polarization, single point.
Assay [13] addresses B16. Put plainly: fluorescence polarization, single point.
Assay [14] concerns the target T8, ClpS from Thermosynochoccus elongatus …. Description: fluorescence polarization, single point.
Assay [15] deals with T9, Kluyveromyces lactis UBR-box domain (PS528) (Kluyveromyces lactis, UniProt O60014 101-182).
T9 construct: UBR-streptavidin complex in fluorescence polarization
T9 sequence: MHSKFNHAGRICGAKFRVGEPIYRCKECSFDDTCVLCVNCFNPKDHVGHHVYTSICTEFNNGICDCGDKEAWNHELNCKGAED
Put plainly: biolayer interferometry single-point screen, 30 C. In general terms: Biolayer interferometry detects binding as a change in optical thickness at a sensor tip.

B1: PS406 (other)
chain: MPDATTTPRTKTLTRTARPPLHKVILVNDDFTPREFVVRLLKAEFRTTGDEAQRIMITAHMKGSCVVAVFTREIAESKATRATETARAEGFPLLFTTEPEE
As to B1, the binding result is “no binding” in assay [1]; “no binding” in assay [2]; “no binding” in assay [3]; “binds” in assay [4]; “binds” in [5]; “binds” in assay [6].

B2: PS693 (Bis-PS528, Linker 1) (designed binder)
chain: MHSKFNHAGRICGAKFRVGEPIYRCKECSFDDTCVLCVNCFNPKDHVGHHVYTSICTEFNNGICDCGDKEAWNHELNCKGAEDGGGSGGGSGGGSGMHSKFNHAGRICGAKFRVGEPIYRCKECSFDDTCVLCVNCFNPKDHVGHHVYTSICTEFNNGICDCGDKEAWNHELNCKGAEDGGSHHHHHHHHHHGGGSGGGSGGGSGLNDFFEAQKIEWHEGGGSGGGSGGGSGLNDFFEAQKIEWHE
notes: Single polypeptide; the entry includes the C-terminal His/bis-biotinylation tag
The term Kd denotes the concentration at which binding is half-saturated. A higher Kd goes with lower affinity. Turning to B2, binding in [7] was characterised by a dissociation constant (Kd) of 263 nM.

B3: PS379 (other)
chain: MSTQEEVLEEVKTTTQKENEIVLYNDDYNTFDHVIETLIYACEHTPVQAEQCAILVHYKGKCTVKTGSFDELKPRCSKLLEEGLSAEIV
For the molecule B3, the binding result in assay [1], in assay [2], in [3], in [4], in assay [5] and in assay [6] was “no binding” in each case.

B4: PS694 (Bis-PS528, Linker 2) (designed binder)
chain: MHSKFNHAGRICGAKFRVGEPIYRCKECSFDDTCVLCVNCFNPKDHVGHHVYTSICTEFNNGICDCGDKEAWNHELNCKGAEDGSAGSAAGSGEFMHSKFNHAGRICGAKFRVGEPIYRCKECSFDDTCVLCVNCFNPKDHVGHHVYTSICTEFNNGICDCGDKEAWNHELNCKGAEDGGSHHHHHHHHHHGGGSGGGSGGGSGLNDFFEAQKIEWHEGGGSGGGSGGGSGLNDFFEAQKIEWHE
notes: as for B2
In turn, B4 gave a dissociation constant Kd in assay [7] of 353 nM.

B5: PS692 (Bis-PS621, Linker 3) (designed binder)
chain: MHSKFSHAGRICGAKFKVGEPIYRCKECSFDDTCVLCVNCFNPKDHTGHHVYTTICTEFNNGICDCGDKEAWNHTLFCKAEEGGSAGSAAGSGEFGSAGSAAGSGEFGSAGSAAGSGEFMHSKFSHAGRICGAKFKVGEPIYRCKECSFDDTCVLCVNCFNPKDHTGHHVYTTICTEFNNGICDCGDKEAWNHTLFCKAEEGGGSHHHHHHHHHHGGGSGGGSGGGSGLNDFFEAQKIEWHEGGGSGGGSGGGSGLNDFFEAQKIEWHE
notes: as for B2
In the case of B5, the affinity in [7], expressed as Kd, was 478 nM.
For B6, in assay [8], the binding result is reported as “binds”.
Take B7: the binding result in assay [8] is given as “binds”.

B8: PS373 (other)
chain: MNRIKQEAVRTENLLICSESIRRTPGTMSNEESMFDEVVAVAVAEPETQHDERRGTKPKRQPPYHVILWDDTDHSFDYVIMMMKRLFRMPIEKGFQVAKEVDSSGRAICMTTTLELAELKRDQIHAFGKDELLPRCKGSMSATIEPAEG
Regarding B8, the binding result in assay [1], in [2], in [3], in assay [4], in [5] and in assay [6] was “no binding” in each case.
B9: the binding result in assay [8] is given as “binds”.
Regarding B10, the binding result in assay [8] is “binds”.

B11: PS695 (Bis-PS528, Linker 3) (designed binder)
chain: MHSKFNHAGRICGAKFRVGEPIYRCKECSFDDTCVLCVNCFNPKDHVGHHVYTSICTEFNNGICDCGDKEAWNHELNCKGAEDGSAGSAAGSGEFGSAGSAAGSGEFGSAGSAAGSGEFMHSKFNHAGRICGAKFRVGEPIYRCKECSFDDTCVLCVNCFNPKDHVGHHVYTSICTEFNNGICDCGDKEAWNHELNCKGAEDGGSHHHHHHHHHHGGGSGGGSGGGSGLNDFFEAQKIEWHEGGGSGGGSGGGSGLNDFFEAQKIEWHE
notes: as for B2
Take B11: in assay [7], binding was put at a Kd of 317 nM.

B12: PS435 (other)
chain: MTLSVALGPDTQESTQTGTAVSTDTLTAPDIPWNLVIWNDPVNLMSYVSYVFQSYFGYSETKANKLMMEVHKKGRSIVAHGSKEQVEQHAVAMHGYGLWATVEKATGGNSGGGKSGGPGKGKGKRG
In the case of B12, the binding result in [1] is on record as “no binding”; in assay [2] it was “no binding”; in assay [3], “binds”; in [4], “binds”; in assay [5], “binds”; in assay [6] it was “binds”.

B13: PS368 (other)
chain: MASAPSTTLDKSTQVVKKTYPNYKVIVLNDDLNTFDHVANCLIKYIPDMTTDRAWELTNQVHYQGQAIVWTGPQEQAELYHQQLRREGLTMAPLEAA
As to B13, the binding result in assay [1] is recorded as “no binding”; in assay [2], “no binding”; in assay [3], “binds”; in [4] it was “binds”; in assay [5], “binds”; in [6], “binds”.

B14: PS691 (Bis-PS621, Linker 2) (designed binder)
chain: MHSKFSHAGRICGAKFKVGEPIYRCKECSFDDTCVLCVNCFNPKDHTGHHVYTTICTEFNNGICDCGDKEAWNHTLFCKAEEGGSAGSAAGSGEFMHSKFSHAGRICGAKFKVGEPIYRCKECSFDDTCVLCVNCFNPKDHTGHHVYTTICTEFNNGICDCGDKEAWNHTLFCKAEEGGGSHHHHHHHHHHGGGSGGGSGGGSGLNDFFEAQKIEWHEGGGSGGGSGGGSGLNDFFEAQKIEWHE
notes: as for B2
Consider B14, for which binding in assay [7] was put at a Kd of 369 nM.

B15: PS370 (other)
chain: MFNSLGTVLDPKKSKAKYPEARVIVLDDNFNTFQHVANCLLAIIPRMCEQRAWDLTIKVDKAGSAEVWRGNLEQAELYHEQLFSKGLTMAPIEKT
Take B15: the binding result in assay [1] was “no binding”; in assay [2], “no binding”; in assay [9], “binds”; in [10] it was “binds”; in [11] it was “binds”; in assay [12], “binds”. In addition, in [13], the binding result was “no binding”.
As for B16, the binding result in assay [14] is “no binding”.
For the molecule VAKLDEESILKQK-{FITC′} [FITC-labeled VA peptide VAKLDEESILKQK-FITC], the binding result in assay [14] is “no binding”.

B17: HA peptide HAKLDEESILKQK (XAKLDEESILKQK, X = H) (peptide)
peptide: HAKLDEESILKQK
notes: Biolayer interferometry single-point screen of UBR-box homologs
For B17, the binding result in assay [15] is given as “binds”.

B18: PS690 (Bis-PS621, Linker 1) (designed binder)
chain: MHSKFSHAGRICGAKFKVGEPIYRCKECSFDDTCVLCVNCFNPKDHTGHHVYTTICTEFNNGICDCGDKEAWNHTLFCKAEEGGGGSGGGSGGGSGMHSKFSHAGRICGAKFKVGEPIYRCKECSFDDTCVLCVNCFNPKDHTGHHVYTTICTEFNNGICDCGDKEAWNHTLFCKAEEGGGSHHHHHHHHHHGGGSGGGSGGGSGLNDFFEAQKIEWHEGGGSGGGSGGGSGLNDFFEAQKIEWHE
notes: as for B2
The molecule B18 displayed a Kd in assay [7] of 354 nM.

B19: PS381 (other)
chain: MVAFSKKWKKDELDKSTGKQKMLILHNDSVNSFDYVIKTLCEVCDHDTIQAEQCAFLTHFKGQCEIAVGEVADLVPLKNKLLNKNLIVSIH
Take B19: the binding result in assay [1], in assay [2], in assay [3], in assay [4], in [5] and in assay [6] was “no binding” throughout.
